According to PMC7619190, “Pervanadate-induced oxidation relieves autoinhibition of SRC protein tyrosine kinase” (Science signaling, 2026):
Where no end group is shown, it is not given here. [ ]: non-standard residue; d: D form. pY = N[C@@H](Cc1ccc(OP(=O)(O)O)cc1)C(=O)O

Tests used:
[1] = biological target: the molecule itself; test: non-reducing SDS-PAGE and immunoblot; HEK293T cells, PV time course, washed with PBS with catalase and NEM, lysed in 2% SDS with NEM; disulfide-linked dimer as slower migrating species
[2] = biological target: T1, human SRC SH2 domain (Gln147-Lys252), wild type (human, UniProt P12931-1 147-252); test: ITC; peptide (400 uM) titrated into SRC SH2 (40 uM) in the cell, 25 C, MicroCal PEAQ-ITC Automated; SH2 domain pretreated with 1 mM TCEP (reducing conditions); details: both partners purified
T1 construct: SRC SH2 domain, human, residues Gln147-Lys252, cloned in pETM11; numbering on UniProt P12931-1; Used after pretreatment with 1 mM TCEP (reduced) or 0.1 mM pervanadate (cysteines oxidised; which residues were oxidised in this sample was not determined); The two states are told apart by the assay (a1, a2); also called SH2^WT; SRC SH2^WT

Binder	stoichiometry N [1]	binding result [2]
peroxiredoxin 1 (PRDX1) (natural protein, human (endogenous in HEK293T), UniProt Q06830 1-199, looked up, peroxiredoxin 1, endogenous in HEK293T cells; Disulfide-linked dimer seen on non-reducing gels; source: endogenous, HEK293T lysate) MSSGNAKIGHPAPNFKATAVMPDGQFKDISLSDYKGKYVVFFFYPLDFTFVCPTEIIAFSDRAEEFKKLNCQVIGASVDSHFCHLAWVNTPKKQGGLGPMNIPLVSDPKRTIAQDYGVLKADEGISFRGLFIIDDKGILRQITVNDLPVGRSVDETLRLVQAFQFTDKHGEVCPAGWKPGSDTIKPDVQKSKEYFSKQK	2	
EPQ[pY]EEIP (source: synthetic peptide, bought: Biosynth (95% purity)) [optimized SRC binding phosphopeptide (EPQpYEEIP)]		binds
